No end group written: not given here.
Experiment: Solubility of VS fragments in water
Assay type: physicochemical
Experimental: Accordingly, the VS48 is apt to be dissolved in a solvent directly without any assistance of solubilizers (such as a tag protein, TRX) and with no sediments being produced. The solvent can be any solutions comprising similar osmotic pressure to body's liquid of organisms (such as plasma), for example 0.85-0.9% saline. Preferably, the solvent is 0.85-0.90% saline, which is dramatically stable as store and is capable of being stored for one year under 4° C.

With “GPDICGPGTKKVHVIFNYKGKNVLINKDIRCKDDEFTHLYTLIVRPDN (cysteines drawn unpaired) [VS48]” as the sequence, how does the solubility read?
Its solubility is 1000 µg/mL.
